B1: Importin-13 (Homo sapiens), O94829 (parent)
chain: MERREEQPGAAGAGAAPALDFTVENVEKALHQLYYDPNIENKNLAQKWLMQAQVSPQAWHFSWQLLQPDKVPEIQYFGASALHIKISRYWSDIPTDQYESLKAQLFTQITRFASGSKIVLTRLCVALASLALSMMPDAWPCAVADMVRLFQAEDSPVDGQGRCLALLELLTVLPEEFQTSRLPQYRKGLVRTSLAVECGAVFPLLEQLLQQPSSPSCVRQKVLKCFSSWVQLEVPLQDCEALIQAAFAALQDSELFDSSVEAIVNAISQPDAQRYVNTLLKLIPLVLGLQEQLRQAVQNGDMETSHGICRIAVALGENHSRALLDQVEHWQSFLALVNMIMFCTGIPGHYPVNETTSSLTLTFWYTLQDDILSFEAEKQAVYQQVYRPVYFQLVDVLLHKAQFPSDEEYGFWSSDEKEQFRIYRVDISDTLMYVYEMLGAELLSNLYDKLGRLLTSSEEPYSWQHTEALLYGFQSIAETIDVNYSDVVPGLIGLIPRISISNVQLADTVMFTIGALSEWLADHPVMINSVLPLVLHALGNPELSVSSVSTLKKICRECKYDLPPYAANIVAVSQDVLMKQIHKTSQCMWLMQALGFLLSALQVEEILKNLHSLISPYIQQLEKLAEEIPNPSNKLAIVHILGLLSNLFTTLDISHHEDDHEGPELRKLPVPQGPNPVVVVLQQVFQLIQKVLSKWLNDAQVVEAVCAIFEKSVKTLLDDFAPMVPQLCEMLGRMYSTIPQASALDLTRQLVHIFAHEPAHFPPIEALFLLVTSVTLTLFQQGPRDHPDIVDSFMQLLAQALKRKPDLFLCERLDVKAVFQCAVLALKFPEAPTVKASCGFFTELLPRCGEVESVGKVVQEDGRMLLIAVLEAIGGQASRSLMDCFADILFALNKHCFSLLSMWIKEALQPPGFPSARLSPEQKDTFSQQILRERVNKRRVKEMVKEFTLLCRGLHGTDYTADY

Variants of: B1
Details: with mgn_human MAGOH

Row | effect of a mutation on the interaction | Variant
1 | disrupting interaction | R803E
2 | disrupting interaction | K802E

— IntAct's records for PubMed 21139563
